Laboratory results taken from paper PMC7008241, “Radiolabeled Cationic Peptides for Targeted Imaging of Infection” (Contrast Media & Molecular Imaging, 2019).
Several values for one entry are separate records, joined by “and”; a condition that tells them apart may be missing. Equal values may be shown once. Where a SMILES comes first, the peptide text is derived from it. [ ]: non-standard residue; d: D form. The star is where a group is joined. DOTA = O=C(O)CN1CCN(CC(=O)O)CCN(CC(=O)*)CCN(CC(=O)O)CC1; X1 = CC(=O)c1ccc(OCCC*)cc1B(O)O

Columns and labels:
[1] = tested on: Staphylococcus aureus (SA), ATCC 6538; experiment: Bacterial cell uptake of 64Cu-labeled peptides in Staphylococcus aureus; format: cell-based; conditions: SA 0.9–1.3 × 10^7 CFU/mL in PBS pH 7.4, 37°C, 24 h, 0.925–0.999 MBq, gamma counter, triplicates, mean ± SD
Text: (§1) All solvents and reagents were obtained from Sigma-Aldrich Company unless otherwise specified. […] Diethylenetriaminepentaacetic acid (DTPA) was purchased from Sigma (St. Louis, MO). 1,4,7,10-Tetraazacyclododecane-1,4,7,10-tetraacetic acid mono-N-hydroxysuccinimide ester (DOTA-NHS-ester) was purchased from Macrocyclics (Dallas, Texas). C18 SepPak cartridges were obtained from Waters Corporation (Milford. MA). Radiometric instant thin-layer chromatography measurements were accomplished using a TLC scanner (Bioscan AR-2000 Scanner). Reverse-phase chromatography analysis was performed on a C18 column (PA) with an infinity diode-array UV detector (Agilent, Lake Forest, CA) and a PMT/NaI remote radioactive detector (LabLogic Systems Ltd, Brandon, FL). Laura radiochromatography software (LabLogic Systems Ltd, Brandon, FL) was used to quantify chromatograms by integration. Radioactive samples were counted using a 2480 Wizard II automatic gamma counter (PerkinElmer, Downers Grove, IL). Imaging studies were done by using […] (Sofie BioSciences) [CT-80 Kvp, 5 min (approximately 100 μm), PET-Resolution ≤1 mm]. Acquired PET/CT images were analyzed with InveonTM Research Workplace (IRW) (Siemens). […] At each time point, the mixture was spun down, washed twice with PBS, and the final bacterial pellets were measured using a gamma counter to determine the percent of associated radiolabeled peptide. […]

[2] = tested on: Pseudomonas aeruginosa (PA), ATCC 47085; experiment: Bacterial cell uptake of 64Cu-labeled peptides in Pseudomonas aeruginosa; format: cell-based; conditions: PA in PBS pH 7.4, 37°C, gamma counter, triplicates, mean ± SD
Text: as §1

[3] = in vivo; set-up: species or system mice; conditions: mouse, iv, total radioactivity
Experimental: (§2) All animal experiments were performed according to animal use protocols approved by the University of Alabama at Birmingham Institutional Animal Care and Use Committee (IACUC). Animals were housed under controlled conditions with a natural light-dark cycle. They were allowed to adapt to the housing environment for at least 48 h prior to study. Biodistribution and PET imaging studies with ^64Cu-HLys-DOTA and ^64Cu-AB1-HLys-DOTA were conducted in mice intramuscularly (IM) infected in the thigh muscle with SA and PBS as a control. Thirty-six male mice (25–30 g, 4–5 weeks old) infected with SA were used for animal studies. For each peptide, 4 mice were used for small animal PET imaging at 1, 4, and 24 h, and then sacrificed at 24 h for a post-PET biodistribution. Another set of 4 mice each was used for biodistribution studies at 1 and 4 h. A similar set of mice was used for blocking studies with ^64Cu-AB1-HLys-DOTA peptide. In order to check the specificity of ^64Cu-AB1-HLys-DOTA for Gram-positive bacteria, imaging and post-PET biodistribution studies were conducted in another set of mice (four) intramuscularly (IM) infected in the thigh muscle with PA and PBS.
(§3) Mice for infection studies were anesthetized prior to the intramuscular infection of SA or PA. Animals were immobilized with isoflurane. Bacteria cells concentrated in sterile PBS were injected into the thigh muscle and the site of injection pinched to minimize bleeding. SA or PA suspension (50 μL, 2.6–2.8 × 10^7 CFU per mouse) was intramuscularly injected into the right thigh muscle, and sterile PBS (50 μL) was injected into the left thigh muscle as control. Mice were placed back into the cages and allowed to recover with frequent monitoring to identify any sign of extreme distress. The infection was allowed to develop for 3–5 days before intravenous injection of the radiolabeled probe. The muscles on the left and right thighs were harvested, homogenized, and plated on mannitol agar plates or cultured in LB broth to verify the presence of infection. In addition, [^18F]FDG imaging was also performed in infected animal models as described in the PET imaging section below to further confirm the existence of infection in the right thigh and the absence thereof in the left thigh.
For biodistribution studies, 3.3–3.7 MBq (90–100 μCi) of ^64Cu-HLys-DOTA or ^64Cu-AB1-HLys-DOTA was injected into prewarmed tail vein of the animals under anesthesia. Animals were euthanized at 1 and 4 h after radiotracer administration (n = 4 for each tracer at each time point). At 24 h after small animal PET imaging, the mice were also euthanized for a post-PET biodistribution. In a similar set of experiment, excess of the unlabeled peptide, 150 nmol, was coinjected with the radiolabeled peptides per mouse. The organs of interest were collected, weighed, and measured for radioactivity content using a gamma counter. The data were background-corrected and decay-corrected. The biodistribution data were expressed as percentage of injected radioactive dose per gram of tissue (%ID/g) for selected organs as the mean value of four mice.

[4] = in vivo; set-up: species or system mice; conditions: mouse, iv, total radioactivity; remark: listed apart in the source
Experimental: as §2, §3
(§4) Small animal PET/CT imaging studies were conducted in SA-infected and PA-infected animal models. Each radiolabeled peptide, 3.3–3.7 MBq (90–100 μCi), was administrated via tail vein injection of prewarmed mice under anesthesia. The inflammatory response caused by the infection was confirmed by intravenous injection of [^18F]FDG, 3.7 MBq (100 μCi), into mice infected on the right thigh muscle with SA or PA and on the left with PBS as control. For this small animal PET imaging, 1 and 4 h post-injection static scans were collected. Following imaging studies, the mice were sacrificed for biodistribution. Mice were allowed to recover from anesthesia until the time of imaging. Mice were anesthetized with 2‐3% isoflurane/oxygen and imaged on the small animal PET/CT scanner. Static images were collected at 1, 4, and 24 h for 15, 20, and 30 min, respectively. PET images were coregistered with CT image for anatomical colocalization. Regions of interest (ROI) were manually drawn over organs of interest with CT anatomical guidelines, and the associated radioactivity was measured using Inveon Research Workstation software. Standard uptake values (SUV) were calculated as nCi/cc × animal weight/injected dose, and comparisons in pharmacokinetics of radiolabeled peptides were assessed.

[5] = tested on: Staphylococcus aureus (SA) infected thigh muscle; experiment: in vivo; set-up: species or system mice; conditions: mouse
Experimental: as §2, §3, §4

[6] = male, uptake in the control muscle
[7] = male, mean SUV in the infected muscle
[8] = male, mean SUV of the heart (blood retention)
[9] = male, mean SUV of the heart (dose retention)

Row | SMILES | bacteria cell uptake (percent of associated radiolabeled peptide) [1] | binding to PA (cell uptake) ([2]; 5 min after incubation) | binding to PA (cell uptake) ([2]; 24 h after incubation) | tissue uptake at 1 h [3, 6] | tissue uptake at 4 h [3, 6] | SUV at 1 h [4, 7] | SUV at 4 h [4, 7] | SUV at 24 h [4, 7] | SUV at 1 h [4, 8] | SUV at 24 h [4, 9] | tissue uptake at 24 h [3, 6] | tissue uptake at 24 h [3] | SUV at 1 h [4] | SUV at 4 h [4] | fold increase in accumulation (SUV) vs. ^64Cu-HLys-DOTA at the infection [5]
1 | CC(C)[C@@H](NC(=O)[C@@H](Cc1c[nH]c2ccccc12)NC(=O)[C@@H](Cc1ccc(O)cc1)NC(=O)[C@@H](CCCNC(=N)N)NC(=O)CN1CCN(CC(=O)O)CCN(CC(=O)O)CCN(CC(=O)O)CC1)C(=O)N[C@H](C)C(=O)N[C@H](Cc1c[nH]c2ccccc12)C(=O)N[C@H](CCCNC(=N)N)C(=O)N[C@H](CC(N)=O)C(=O)N[C@H](CCCNC(=N)N)C(=O)NCC(N)=O [^64Cu-HLys-DOTA, metal not drawn] ({DOTA}-[dR][dY][dW][dV][dA][dW][dR][dN][dR]G-NH2; N-terminus and C-terminus assumed) | 39.12 ± 3.27% and 39.1 ± 3.3% | 1.9 ± 0.4% | 5.2 ± 0.3% | 0.6 ± 0.1 %ID/g | 0.4 ± 0.1 %ID/g | 0.17 ± 0.06 SUV | 0.16 ± 0.02 SUV | 0.13 ± 0.01 SUV | 0.25 ± 0.05 SUV | 0.21 ± 0.04 SUV | – | – | – | – | –
2 | CC(=O)c1ccc(OCCCSC[C@H](NC(=O)CNC(=O)[C@@H](CCCNC(=N)N)NC(=O)[C@@H](CC(N)=O)NC(=O)[C@@H](CCCNC(=N)N)NC(=O)[C@@H](Cc2c[nH]c3ccccc23)NC(=O)[C@@H](C)NC(=O)[C@H](NC(=O)[C@@H](Cc2c[nH]c3ccccc23)NC(=O)[C@@H](Cc2ccc(O)cc2)NC(=O)[C@@H](CCCNC(=N)N)NC(=O)CN2CCN(CC(=O)O)CCN(CC(=O)O)CCN(CC(=O)O)CC2)C(C)C)C(N)=O)cc1B(O)O [^64Cu-AB1-HLys-DOTA, metal not drawn] ({DOTA}-[dR][dY][dW][dV][dA][dW][dR][dN][dR]GC(X1)-NH2) | – | – | – | 2.5 ± 0.5 %ID/g | 1.1 ± 0.4 %ID/g | 0.7 ± 0.08 SUV | 0.49 ± 0.04 SUV | 0.31 ± 0.01 SUV | 0.65 ± 0.08 SUV | 0.26 ± 0.04 SUV | 0.8 ± 0.1 %ID/g | 0.49 ± 0.11 %ID/g | 0.28 ± 0.1 SUV | 0.19 ± 0.1 SUV | 2.4-4 fold
